Results as given in US20250206846A1 (YEDA RESEARCH AND DEVELOPMENT, published 2025).
Where no end group is shown, it is not given here.

Legend:
[1] = target: T1, recombinant human KLK4 (human, UniProt Q9Y5K2 31-253); assay: ELISA, plate coated with KLK4; target: full KLK4
T1 construct: also called Kallikrein-4; Full KLK4
Procedure: (§1) ELISA binding assay: A ninety-six-well plate (Nunc) was coated with KLK4 and Loop-KLK4 at 10 µg/ml. After blocking with 2% BSA in PBS, the plate was incubated with the antibodies for 1 h at 37° C. Bound antibodies were detected by peroxidase-conjugated antibody goat anti-human (Jackson ImmunoResearch). EC₅₀ was calculated with GraphPad Prism from […] curve fitting analysis.
(§2) Interaction of KLK4 monoclonal antibody was tested by ELISA using KLK4 & KLK4-Loop3. As a control, anti-GST monoclonal antibody was used.

[2] = target: T2, Loop-KLK4 synthetic cyclized peptide (CGLHSLEADQEPGSCC) (human, bridge (positions not given here); also: cyclized, chemistry not given here); assay: ELISA, plate coated with Loop-KLK4 peptide; target: Loop3-KLK4 peptide
T2 construct: The peptide was coupled to KLH for immunization and to BSA for the ELISA tests of sera; no carrier is stated there; also called Loop3-KLK4; KLK4-Loop3
T2 peptide: CGLHSLEADQEPGSCC
Procedure: as §1, §2

T1 sequence (Q9Y5K2 31-253 H197Q limits assumed): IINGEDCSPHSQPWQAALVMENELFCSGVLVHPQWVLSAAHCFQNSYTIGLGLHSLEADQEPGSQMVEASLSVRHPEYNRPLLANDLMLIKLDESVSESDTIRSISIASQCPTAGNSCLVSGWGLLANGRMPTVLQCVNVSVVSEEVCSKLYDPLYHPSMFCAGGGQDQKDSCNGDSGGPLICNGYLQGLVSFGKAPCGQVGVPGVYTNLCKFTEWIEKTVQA

EC50 [1]: 0.272 nM | EC50 [2]: 0.271 nM
B1: anti-KLK4 monoclonal antibody (antibody, IgG1, V domains shown)
VH: EVQLVESGGGLVQPKGSLKLSCAASGFTFKTYAMTWVRQTPGKGLEWVARIRNKNNNYATFYADSVKDRFTISRDDSQSMLYLLMNNLKTEDTAIYYCVRVNYWYFDVWGAGTTVTVSS
VL: EIVMTQSTAIMSASPGEKVTMTCRASSSVSSTYLHWYQQKSGASPKLWIYSTSNLASGVPARFSGSGSGTSYSLTVSSVEAEDAATYYCQQYSSYPLTFGGGTKLEIK
notes: Monoclonal antibody from a hybridoma of immunized balb-c mice; also called anti-KLK4 antibody
